Source: patent US20250057968A1, “ANTI-DLL3 ANTIBODY AND PHARMACEUTICAL USE THEREOF, AND ANTIBODY-DRUG CONJUGATE CONTAINING ANTI-DLL3 ANTIBODY” (Jiangsu Hengrui Pharmaceuticals Co., Ltd., priority 2021, published 2025)

T1: Human DLL3 full-length protein on cells (human, UniProt Q9NYJ7 27-618)
T1 sequence: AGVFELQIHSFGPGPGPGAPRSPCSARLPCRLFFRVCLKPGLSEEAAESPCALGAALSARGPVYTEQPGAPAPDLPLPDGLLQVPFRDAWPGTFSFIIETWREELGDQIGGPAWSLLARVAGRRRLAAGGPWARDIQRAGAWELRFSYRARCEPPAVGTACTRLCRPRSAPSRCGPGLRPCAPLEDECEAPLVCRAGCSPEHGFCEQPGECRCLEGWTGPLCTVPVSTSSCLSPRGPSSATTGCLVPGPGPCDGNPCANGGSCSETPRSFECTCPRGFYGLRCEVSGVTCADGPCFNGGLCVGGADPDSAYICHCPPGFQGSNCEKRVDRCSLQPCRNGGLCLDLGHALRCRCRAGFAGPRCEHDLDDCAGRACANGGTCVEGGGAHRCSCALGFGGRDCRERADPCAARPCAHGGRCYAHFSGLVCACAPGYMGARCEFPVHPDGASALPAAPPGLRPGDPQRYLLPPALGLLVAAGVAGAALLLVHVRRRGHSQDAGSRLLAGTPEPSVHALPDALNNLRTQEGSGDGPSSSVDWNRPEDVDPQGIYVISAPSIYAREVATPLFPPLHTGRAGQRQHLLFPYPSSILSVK

T2: Cynomolgus monkey DLL3 full-length protein on CHO-s cells (cynomolgus monkey, UniProt Q9NYJ7 27-618 (human entry))
T2 construct: also called cynoDLL3/CHO-s
T2 chain: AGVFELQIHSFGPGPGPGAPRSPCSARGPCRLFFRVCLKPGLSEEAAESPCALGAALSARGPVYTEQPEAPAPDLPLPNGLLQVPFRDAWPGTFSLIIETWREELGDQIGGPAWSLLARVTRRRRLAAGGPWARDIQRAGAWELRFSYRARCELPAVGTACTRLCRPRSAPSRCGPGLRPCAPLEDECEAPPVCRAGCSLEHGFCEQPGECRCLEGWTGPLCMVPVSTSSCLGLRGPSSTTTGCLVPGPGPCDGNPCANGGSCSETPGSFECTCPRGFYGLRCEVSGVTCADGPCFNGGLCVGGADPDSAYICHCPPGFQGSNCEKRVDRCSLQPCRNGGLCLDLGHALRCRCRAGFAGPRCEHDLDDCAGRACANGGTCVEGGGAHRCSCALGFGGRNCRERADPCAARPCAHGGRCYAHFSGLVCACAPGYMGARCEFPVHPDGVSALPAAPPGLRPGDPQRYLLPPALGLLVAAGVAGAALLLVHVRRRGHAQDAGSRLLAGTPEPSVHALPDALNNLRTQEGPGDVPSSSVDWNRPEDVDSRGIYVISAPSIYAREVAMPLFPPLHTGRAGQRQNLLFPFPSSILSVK

T3: human DLL3 (ACRO, DLL3-H52H4) (human, UniProt Q9NYJ7 27-479)
T3 construct: bought antigen of the Biacore assay; construct not described
T3 sequence (looked up): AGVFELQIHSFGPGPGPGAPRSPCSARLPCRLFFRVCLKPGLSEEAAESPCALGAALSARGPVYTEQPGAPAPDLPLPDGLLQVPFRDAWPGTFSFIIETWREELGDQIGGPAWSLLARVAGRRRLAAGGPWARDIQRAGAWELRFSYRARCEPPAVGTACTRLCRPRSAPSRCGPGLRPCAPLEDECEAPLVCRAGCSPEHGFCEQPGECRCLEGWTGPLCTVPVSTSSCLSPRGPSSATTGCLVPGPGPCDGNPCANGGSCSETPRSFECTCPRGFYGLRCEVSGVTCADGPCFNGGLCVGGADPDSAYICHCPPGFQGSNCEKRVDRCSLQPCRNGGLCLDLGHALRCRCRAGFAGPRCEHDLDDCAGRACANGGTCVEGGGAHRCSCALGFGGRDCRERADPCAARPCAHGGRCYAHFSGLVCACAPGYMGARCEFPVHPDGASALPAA

B1: Hu6 (antibody, human IgG1, kappa, V domains shown)
VH: EVQLVQSGSELKKPGASVKVSCKASGYTFTDYYMNWVRQAPGQGLEWMGIINPYSGVTIYNHKFKGRFALSVDKSSNTAYLQISSLKAEDTAVYYCARQDSLLDYAMDYWGQGTTVTVSS
VL: DIQMTQSPSSLSASVGDRVTITCHASQGISGNMGWLQQKPGKAPKGLIYHGANLEDGVPSRFSGSGSGADYTLTISSLQPEDFADYYCVQYAQFPYTFGGGTKVEIKR
notes: also called hAb6L4H12
B2: Hu100 (antibody, human IgG1, kappa, V domains shown)
VH: EVQLVESGGGLVKPGGSLRLSCAASGFTFSDSGMHWIRQAPGKGLEWVSYISSGSSTIHYADTVKGRFTISRDNAKNSLYLQMNSLRAEDTAVYYCASPLYYYGRSYNAVAYWGQGTTVTVSS
VL: DIQMTQSPSSLSASVGDRVTITCHASQNINVWLSWYQQKPGKVPKLLIYKASDLHTGVPSRFSGSGSGTDFTLTISSLQPEDVATYYCQQGQSYPLTFGGGTKVEIKR
notes: also called hAb100L1H1

Columns and labels:
[1] = target: T1, Human DLL3 full-length protein on cells; experiment: cell-based or functional assay
[2] = target: T2, Cynomolgus monkey DLL3 full-length …; experiment: FACS on cynoDLL3/CHO-s cells
Protocol: Cells of the DLL3-expressing small cell lung cancer cell lines H1184 (ATCC, Cat. No. CRL-5858), DLL3/H82, cynoDLL3/CHO-s, and RatDLL3/CHO-s were suspended at 1×10^6/mL in FACS buffer (1% BSA+pH 7.4 PBS), and the cell suspensions were added to a 96-well round-bottom plate (Corning, 3795) at 100 μL/well. The plate was centrifuged at 300 g for 5 min, and the supernatant was removed. Different concentrations of test antibodies were added at 100 μL/well. The plate was incubated in the dark in a refrigerator at 4° C. for 1 h. After 3 washes by centrifugation at 300 g, working concentrations of APC anti-human IgG Fc (BioLegend, 410712) or PE F(ab′)2-goat anti-human IgG (invitrogen, H10104) were added. The plate was incubated in the dark in a refrigerator at 4° C. for 40 min. After 3 washes by centrifugation at 300 g, the geometric mean fluorescence intensity was measured on an Invitrogen flow cytometer, and the EC50 values of the antibodies in binding to DLL3-expressing cells were calculated.

[3] = target: cynomolgus monkey DLL3 (KACTUS, DLL-RM103) (cynomolgus monkey); experiment: SPR (Biacore 8K), antibody captured on Protein A chip, 1:1 fit
[4] = target: T3, human DLL3 (ACRO, DLL3-H52H4); experiment: as above
Excerpt: Test antibodies were affinity-captured with a Protein A biosensor chip (Cat. #29127556, Cytiva) for 18 seconds, and then the antigens human DLL3 (ACRO, DLL3-H52H4), cynomolgus monkey DLL3 (KACTUS, DLL-RM103), and mouse DLL3 (KACTUS, DLL-MM103) were allowed to flow over the surface of the chip for 180 seconds, followed by 600 seconds of dissociation. Reaction signals were detected in real time using a Biacore 8K (Cytiva) instrument to obtain association and dissociation curves. After the dissociation in each experimental cycle, the biosensor chip was washed and regenerated with a 10 mM glycine-hydrochloric acid solution (pH 1.5) (Cat. #BR-1003-54, Cytiva). A 1:1 model was fit to the data. The results are shown in Table 12-1, Table 12-2, and Table 12-3.

Binder | IC50 (nM), cell killing caused by endocytosis of antibodies (DT3C, DMS53/DLL3 cells) [1] | Imax, cell killing caused by endocytosis of antibodies (DT3C, DMS53/DLL3 cells) [1] | EC50 [2] | Emax [2] | Kd [3] | Kd [4]
B1 | 0.56 nM | 87.2 | 0.32 nM | 1760 | 1.31 nM | 0.594 nM
B2 | 1.47 nM | 86.1 | 0.55 nM | 2080 | 1.11 nM | 0.471 nM
